Assay results: the DeepSol protein solubility set

Test: soluble on expression in E. coli; label from the status in PepcDB or PDB records

Sequence | soluble on expression in E. coli
MNKNGFSRCADIYIGRLREEGRYSTAHVYQNALLSFSKFCGVHSVSFRQVTRERLRCYEQHLYECGLKPNTISTYMRMLRSIYNRGVEAGSAPYVHRLFHEVYTGVDVRQKRALPVVALRRLLYEDPQSDRLRRTQAIAALMFQFCGMSFADLSHLEKSALDSNVLRYNRVKTKTPMSVEVLDSAQEMLDQLRNRQSPRPGCPDYLFGILHGDKKRKDERAYREYQSALRRFNYCLKSLAKRLRLNFPVTSYTLRHSWATTAKYRGVPIEMISESLGHKSIKTTQIYLKGFELKERTEVNRMNLSYVKRCGVGQCI | not soluble
MDLEMMLDEDYKEGICLINFSQIALSTALVNFPDKEKINLSMVRHLILNSIKFNVKKAKTLGYTKIVLCIDNAKSGYWRRDFAYYYKKNRGKAREESTWDWEGYFESSHKVIDELKAYMPYIVMDIDKYEADDHIAVLVKKFSLEGHKILIISSDGDFTQLHKYPNVKQWSPMHKKWVKIKSGSAEIDCMTKILKGDKKDNVASVKVRSDFWFTRVEGERTPSMKTSIVEAIANDREQAKVLLTESEYNRYKENLVLIDFDYIPDNIASNIVNYYNSYKLPPRGKIYSYFVKAGLSKLTNSINEF | soluble
MQDFDFSFNPKACEGCGAKCCVGESGYIFLNIQEMQQISAFLKLELEEFSQKYVKKVGYKFSLLEKDAKELGLACVFLDLETKKCQIYSVRPKQCQTFPFWEGVKTFSKEQKEAFCQSCPGITQKTKETKVRLEHHHHHH | not soluble
TRELEDAQAMTEGERRKLASVIAYMTDGVIATNRNGAIILLNSPALELLNVSRETALEMPITSLLGLQENYTFEDLVEQQDSMLLEIERDDELTVLRVNFSVIQREHGKIDGLIAVIYDVT | not soluble
MGSSHHHHHHSSGLVPRGSHMASMTGGQQMGRGSMIIDDLLTKKIIKPRPLNSHKGTFGRVLLIGGNYPYGGAIIMAALACVNSGAGLVTVATHKDNITALHSHLPEAMAFDMVEKDRLSEQITAADVVLMGPGLAEDDLAQTTFDVVWQAIEPKQTLIIDGSAINLLAKRKPAIWPTKQIILTPHQKEWERLSGLTIPEQIEAATQTALAHFPKETILVAKSHQTKIYQGQKIGHIQVGGPYQATGGMGDTLAGMIAGFVAQFHTDRFEVAAAAVFLHSYIADQLSKEAYVVLPTRISAEITRVMKEMSE | soluble
NFNSQNGVNKDEKDHLIERLYREISGLKAQLENMKTESQRVVLQLKGHVSELEADLAEQQHLRQQAADDCEFLRAELDELRRQREDTEKAQRSLSEIERKAQANEQRYSKLKEKYSELVQ | soluble
MNGKPDLVITDSQVFKQVNAKLDRSVPLTSFSILMARYKGDLDKFYSGAKAIKNLKAGDKVLIAEACTHHQLKGDIAREKLPTWLEETCPGIIVHNCSGKDFPKNLNEYALVIHCGGCMFNKAEIMNRIGICDDALVPITNFGTSIAEINNILDRVMEPLKLEHHHHHH | not soluble
LLLGDEAIAQAALDAGLSGVYAYPGTPSTEITEYIQMAPITSERNIHNRWCANEKTAMEAALGMSFVGKRALVCMKHVGMNVAADCFINSAITGVKGGLIVVAADDPSMHSSQNEQDSRFYGDFSLIPMYEPSNQQEAYDMVYNGFEFSEKIGEPILMRMVTRLAHSRSGVENKAQKPQNEISFSEDPRQFILLPGNARKRYKVLLTRQEEFIKASEESPYNRYIDGPNKKTGIVACGIGYNYLMENYPEGCEYPVLKVGQYPLPKKQLMQLIDACDEILVLEDGQPFVEKQLKGYLGIGLKVKGRLDGTLSQDGELNPDTVARALGKENSSEFNVPNIVEMRPPALCEGCGHRDMYITLTQVLKEEYPTHKVFSDIGCYTLGANAPFNAINSCVDMGASITMAKGASDGGLHPAVAVIGDSTFTHSGMTGLLDCVNENANVTIVISDNETTAMTGGQDSAGTGRLEAICAGLGVDPAHIRVVVPLK | not soluble
MGSDKIHHHHHHMNNIIVGMGEALWDVLPEGKKIGGAPANFAYHVSQFGFDSRVVSAVGNDELGDEIMEVFKEKQLKNQIERVDYPTGTVQVTLDDEGVPCYEIKEGVAWDNIPFTDELKRLALNTRAVCFGSLAQRNEVSRATINRFLDTMPDIDGQLKIFDINLRQDFYTKEVLRESFKRCNILKINDEELVTISRMFGYPGIDLQDKCWILLAKYNLKMLILTCGINGSYVFTPGVVSFQETPKVPVADTVGAGDSFTAAFCASILNGKSVPEAHKLAVEVSAYVCTQSGAMPELPVILKDRLL | not soluble
